B6: Flag tag - S100A8 (expression product from plasmid 1; also the S100A8 chain co-expressed from plasmid 5) (other)
chain: DYKDDDDKLTELEKALNSIIDVYHKYSLIKGNFHAVYRDDLKKLLETECPQYIRKKGADVWFKELDINTDGAVNFQEFLILVIKMGVAAHKKSHEESHKE

Experiments:
[1] = biological target: T1, S100A9 protein in patient sera (human, UniProt P06702 2-114, limits assumed); test: Dot Blot, B cell supernatant on patient sera
T1 construct: Native serum protein; also called S100A9 signal in patient serum
T1 sequence (looked up): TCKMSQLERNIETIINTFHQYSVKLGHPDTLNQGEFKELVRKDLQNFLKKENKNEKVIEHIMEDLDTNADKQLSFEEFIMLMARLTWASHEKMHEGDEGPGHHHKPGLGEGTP

[2] = biological target: T2, S100A9 recombinant protein (pET-28a-S100A9 (1-114 aa) expressed protein) (human, UniProt P06702 1-114); test: ELISA, LEM supernatant, antigen coated at 1 µg/mL
T2 construct: Immunogen and ELISA screening antigen, expressed from pET-28a; also called S100A9 antigen; expressed S100A9 antigen
T2 sequence: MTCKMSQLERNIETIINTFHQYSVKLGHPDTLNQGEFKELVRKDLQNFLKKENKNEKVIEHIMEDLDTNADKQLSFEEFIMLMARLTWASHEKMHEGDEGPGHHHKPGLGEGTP
Description: (§1) The ELISA reaction conditions were as follows: [0207]

[3] = biological target: T3, commercial S100A9 protein (ab95909, Recombinant Human S100A9 protein) (human, UniProt P06702 1-114); test: ELISA, LEM supernatant, antigen coated at 1 µg/mL
T3 construct: Bought; also called commercial A9 protein
T3 sequence (looked up): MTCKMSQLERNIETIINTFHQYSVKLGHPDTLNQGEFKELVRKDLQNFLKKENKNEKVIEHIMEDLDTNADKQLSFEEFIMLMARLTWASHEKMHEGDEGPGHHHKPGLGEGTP
Description: as §1

[4] = biological target: T4, commercial S100A8/S100A9 Heterodimer (R&D) heterodimer protein (UniProt P05109 1-93; P06702 2-114, limits assumed); test: ELISA, LEM supernatant, heterodimer coated at 1 µg/mL
T4 construct: Bought, purity >95%; also called S100A8/S100A9 heterodimer protein standard; commercial S100A8/S100A9 protein
T4 sequence (looked up) 1: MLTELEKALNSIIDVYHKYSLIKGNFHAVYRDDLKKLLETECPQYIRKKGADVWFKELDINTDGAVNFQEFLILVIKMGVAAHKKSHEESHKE
T4 sequence (looked up) 2: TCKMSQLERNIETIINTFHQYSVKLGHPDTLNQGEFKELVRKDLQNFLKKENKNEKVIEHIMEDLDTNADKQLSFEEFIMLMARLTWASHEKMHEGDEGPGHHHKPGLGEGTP
Description: The ELISA reaction conditions were as follows: [0196]

[5] = biological target: T5, S100A8/S100A9-1 recombinant protein (expression product from plasmid 5) (human, UniProt P05109 2-93; P06702 1-114); test: sandwich ELISA, 5H10 coated at 0.5 µg/mL, 7C4-HRP detecting
T5 construct: also called S100A8/S100A9-1 heterodimer; S100A8/S100A9-1 (S100A9 mutant) heterodimer; not shown: T7-tag
T5 chain 1: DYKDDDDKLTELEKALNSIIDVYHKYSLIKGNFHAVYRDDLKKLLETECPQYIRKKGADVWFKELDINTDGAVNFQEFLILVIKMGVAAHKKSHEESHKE
T5 chain 2: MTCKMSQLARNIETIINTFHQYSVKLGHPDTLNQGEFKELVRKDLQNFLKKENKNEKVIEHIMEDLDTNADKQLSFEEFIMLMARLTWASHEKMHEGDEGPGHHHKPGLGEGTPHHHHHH
Method: (1) Experimental steps: [0270] standard: commercial R&D S100A8/S100A9 heterodimer protein, 2-fold gradient dilution from 40 ng/mL, with a total of 8 concentrations, lower limit of 0.625 ng, and boundary value of 40-0.625; [0271] reaction system: 96-well plate reaction system, laboratory buffer; [0272] coating antibody concentration: 5H10 (anti-S100A8 antibody), 0.5 μg/mL; [0273] detecting antibody concentration: 7C4-HRP (directly labeled), antibody dilution ratio of 1:20000 or 1:10000; [0274] TMB development: dilution ratio being 1:2, and color development time being 15 min.

[6] = biological target: the molecule itself; test: SDS-PAGE of His-purified protein, homodimer band at 34 KDa
Description: (§2) (8) SDS-PAGE gel electrophoresis: the supernatant obtained after lysis and the purified protein were mixed with 6×Loading Buffer according to a volume ratio of 5:1 for sample preparation; and the prepared sample was subjected to SDS-PAGE gel electrophoresis together with bovine serum albumin (BSA, purchased from BioFroxx, Cat. No. 4240GR025) and Marker, wherein plasmid 1 and mutant plasmid 1 were the final samples purified by Flag-Tag, plasmid 2 and mutant plasmid 2 were the final samples purified by His-Tag, and plasmid 3 and plasmid 4 were the final samples purified by His-Tag and Flag-Tag. […] In panel C, the “Supernatant” refers to the supernatant obtained after centrifugation during first lysis, and the “Supernatant 2” refers to the supernatant obtained by performing second lysis treatment on the precipitate obtained after first lysis and centrifugation and then performing centrifugation.

[7] = biological target: the molecule itself; test: SDS-PAGE of protein purified by His-Tag and Flag-Tag
Description: as §2
Except for the synthesized gene of interest (gene of interest S100A8+S100A9-1 in plasmid 5), the construction and expression and purification method for plasmid 5 was the same as that for plasmids 3 and 4, which was not described in detail herein.

[8] = biological target: B6; test: co-expression, purification by His-Tag then Flag-Tag, SDS-PAGE
[9] = biological target: the molecule itself; test: SDS-PAGE of His-purified protein
Description: as §2

[10] = biological target: the molecule itself; test: SDS-PAGE of Flag-purified protein, homodimer band at 30 KDa
Description: as §2

[11] = biological target: T6, S100A8 protein in patient sera (human, UniProt P05109 1-93); test: Dot Blot, B cell supernatant on patient sera
T6 construct: Native serum protein; also called S100A8 signal in patient serum
T6 sequence (looked up): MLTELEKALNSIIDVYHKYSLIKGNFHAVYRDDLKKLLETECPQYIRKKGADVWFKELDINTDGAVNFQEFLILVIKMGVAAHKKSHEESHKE

[12] = biological target: T7, S100A8 recombinant protein (pET-28a-S100A8 (1-93 aa) expressed protein) (human, UniProt P05109 1-93); test: ELISA, B cell supernatant on expressed S100A8 antigen; positive = OD greater than 0.7
T7 construct: Immunogen and ELISA screening antigen, expressed from pET-28a; also called S100A8 antigen; expressed S100A8 antigen
T7 sequence: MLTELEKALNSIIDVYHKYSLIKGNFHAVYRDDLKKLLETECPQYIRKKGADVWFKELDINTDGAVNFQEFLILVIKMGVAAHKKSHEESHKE

[13] = biological target: T8, commercial S100A8 protein (ab167749, Recombinant human MRP8 protein) (human, UniProt P05109 1-93); test: ELISA, B cell supernatant on commercial S100A8 protein ab167749; positive = OD greater than 0.7
T8 construct: Bought; also called commercial S100A8 antigen
T8 sequence (looked up): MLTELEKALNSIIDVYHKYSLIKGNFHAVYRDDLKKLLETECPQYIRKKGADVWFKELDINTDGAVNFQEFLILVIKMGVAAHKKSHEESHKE

Measured: binding result

B1: 7C4 (antibody, V domains shown)
VH: QSVEESGGRLVTPGTPLTLTCTVSGIDLSSGWMNWVRQAPGGGLEWIGTINSGGSPYYARWAKGRFTLSTTSTTVDLKITSPTTEDTATYFCGSRDFWGPGTLVTVSS
VL: AQVLTQTASPVSAAVGGTVTINCQASQSVYNNNYLAWYQQKPGQPPKRLIYAASNLASGVSSRFKGSGSGTQFTLTISDLQCDDAATYYCSGGYDCDSADCSVFGGGTEVVVKG
notes: Rabbit monoclonal IgG against S100A9 (rabbit E16675); also called 7C4-HRP; 7C4 (biotin-labeled)
binds: [1] | [2] | [3] | [4] | [5]

B2: 8A11 (antibody, V domains shown)
VH: QSVEESGGRLVTPGTPLTLTCTVSGIDLSSGWMNWVRQAPGKGLEWIGVINSYGRTYYARWAKGRFTISITSTTVDLKITSPTTEDTATYFCGSRDFWGPGTLVTVSS
VL: AQVLTQTASPVSAAVGSTVTINCQASQSVYKNNYLAWYQQKPGQPPKRLIYSASTLASGVSSRFKGSGSGTQFTLTISDVQCDDAATYYCGGGYDCDSADCSVFGGGTEVVVKG
notes: Rabbit monoclonal IgG against S100A9 (rabbit E16675); Biotin-labeled when used as detecting antibody; also called 8A11 (biotin-labeled)
binds: [1] | [2] | [3] | [4]

B3: S100A9 - 6 x His tag (expression product from plasmid 2) (other)
chain: MTCKMSQLERNIETIINTFHQYSVKLGHPDTLNQGEFKELVRKDLQNFLKKENKNEKVIEHIMEDLDTNADKQLSFEEFIMLMARLTWASHEKMHEGDEGPGHHHKPGLGEGTPHHHHHH
notes: pET-28a, BamHI/HindIII
binds: [6]

B4: T7-tag - S100A9-1 - 6 x His tag (S100A9-1 chain co-expressed from plasmid 4 and plasmid 5) (other)
chain: MTCKMSQLARNIETIINTFHQYSVKLGHPDTLNQGEFKELVRKDLQNFLKKENKNEKVIEHIMEDLDTNADKQLSFEEFIMLMARLTWASHEKMHEGDEGPGHHHKPGLGEGTPHHHHHH
notes: Single chain of the co-expression constructs, written as a molecule of its own for the dimer formation results; also called mutant S100A9; not shown: T7-tag
binds: [7] | [8]

B5: S100A9-1 (E9A) - 6 x His tag (expression product from mutant plasmid 2) (other)
chain: MTCKMSQLARNIETIINTFHQYSVKLGHPDTLNQGEFKELVRKDLQNFLKKENKNEKVIEHIMEDLDTNADKQLSFEEFIMLMARLTWASHEKMHEGDEGPGHHHKPGLGEGTPHHHHHH
notes: pET-28a, BamHI/HindIII; also called mutant S100A9
binds: [9]

B6
binds: [10]

B7: 3D8 (antibody, V domains shown)
VH: QSVEESGGRLVTPGTPLTLTCTVSGIDLSTNPMGWVRQAPGKGLEWIGIIFADTGEIYYATWAKGRFTISETSSTTVDLKITSPTAEDTATYFCVRGSPSSANIWGPGTLVTVSS
VL: AAVLTQTPSPVSAAVGGTVTISCQSSQSVYNNNWLGWYQQKPGQPPKLLIYRASTLASGVPSRFKGSGSGTQFTFTISDLECDDAATYYCAGTYRRNSDNGFGGGTEVVVKG
notes: Rabbit monoclonal IgG against S100A8 (rabbit E15229); Biotin-labeled when used as detecting antibody
binds: [11] | [4] | [12] | [13]

B8: 5H10 (antibody, V domains shown)
VH: QSVEESGGRLVTPGTPLTLTCTVSGIDLSTNPMGWVRQAPGKGLEWIGIIFADTGEIYYATWARGRFTISETSSTTVDLKITSPTAEDTATYFCVRGSPSSANIWGPGTLVTVSS
VL: AAVLTQTPSPVSAAVGGTVTISCQSSQSVYNNNWLGWYQQKPGQPPKLLIYRASTLASGVSSRFKGSGSGTQFTLTISGLECDDAATYYCAGTYRRNSDNGFGGGTEVVVKG
notes: Rabbit monoclonal IgG against S100A8 (rabbit E15229); Tested as B cell supernatant, LEM supernatant and purified recombinant antibody; biotin-labeled when used as detecting antibody; also called anti-S100A8 monoclonal antibody 5H10
binds: [11] | [4] | [5] | [12] | [13]

B9: 2C2 (antibody, V domains shown)
VH: QSVEESGGRLVTPGGSLTLTCTVSGFSLSSYFMIWVRQAPGKGLEYIGIHSDTGSTDYASWAKGRFTISKTSTTVDLKMTSLTASDTATYFCARDGGNDAYYYFNIWGPGTLVTVSS
VL: AYDMTQTPASVEVAVGGTVTINCQASQSISTALAWYQQKPGQPPKPLIYEASKLASGVPSRFKGSGSGTEFILTISDLECADAATYYCQQGASARNIASNVFGGGTEVVVKG
notes: as for B7
binds: [11] | [4] | [12] | [13]
